Laboratory results reported in patent US20170322229A1, “HIGH AFFINITY VITAMIN D3 BINDING PROTEINS” (UNIVERSITY OF WASHINGTON, priority 2015, published 2017).

B1: CDL2: designed 25-D3 binding protein based on scaffold PDB ID 3HX8, a putative ketosteroid isomerase (protein)
chain: GQSAKEAIEAALADFVKAYNSKDAAGVASKYMDDAAIFPLDMARVDGRQNIQKLWQGLMDMGVSELKLTTLDVQESGDFAFESGSFSLKGPGKDSKLVDVAGKYVVVWRKGQDGGWKLYRTISNLDPAK
B2: CDL2.1: evolved variant of CDL2 incorporating 10 mutations scattered around the protein (protein)
chain: DQSAKEAIEAALADFVKVYNSKDAAGVASKYMDDAAIFPLDMAPVDGRQNIQKLWQGLMDMGVSEPKFTTLNVQKSGDFAFESGSFSLKGPGKDSKLVDIAGIYVEVWRKGQDGGWKLYRTIANLDPAK
B3: CDL2.2: slightly truncated from HH35.v1/CDL2.1; most advanced variant from the directed evolution efforts (protein)
chain: QSAKEAIEAALADFVKVYNSKDAAGVASKYMDDAAIFPLDMAPVDGRQNIQKLWQGLMDMGVSEPKFTTLNVQKSGDFAFESGSFSLKGPGKDSKLVGIAGIYVEVWRKGQDGGWKLYRTIANLGP
B4: CDL1: designed 25-D3 binder based on scaffold PDB ID 1Z1S, a putative isomerase; 8 mutations from 1Z1S (protein)
chain: SGREQGHMNAKEILVHALRLVENGDARGFCDLFHPEGVMEFPYAPPGYKTRFEGRETIWAHMRLFPEHLTIRFTDVQFYETADPDLAIGEFHGDGVATVSGGKLAQDFISVLRTRDGQILLSRIFWNPLRHLEALGGVEAAAKIVQGA
B5: CDL1.1: evolved variant of CDL1 with mutations P46S, R55A, H68P, G136V; truncated as well as mutated from 6234 (protein)
chain: NLYFQGHMNAKEILVHALRLVENGDARGFCDLFHPEGVMEFPYAPSGYKTRFEGAETIWAHMRLFPEPLTIRFTDVQFYETADPDLAIGEFHGDGVATVSGGKLAQDFISVLRTRDGQILLSRIFWNPLRHLEALV

Tests used:
[1] = Approximate Kd summary (Table 4) / measured binder ranking, method not stated; assay type: binding; settings: Ligand Target 25-hydroxycholecalciferol
[2] = Fluorescence polarization binding of 25-D3; settings: read-out: Approximate Kd
[3] = Yeast surface display and flow cytometry binding/titration against 25-D3; settings: for Kd: yeast surface display, 25-D3
Description: We discovered another binder for 25-D3, referred to here as CDL2. […] It was further evolved to investigate and improve its specificity and affinity. To test a broader number of mutants, CDL2 was optimized using ep-PCR as well as small computationally guided library. The computationally guided library was constructed by docking the ligand into the binding site and optimizing the interactions between 25-D3 and the protein using ROSETTA®. To increase the sampling of the ligand, short MD simulations were performed to make small perturbations of the backbone. These computational variants, as well as variants generated via error prone mutagenesis, were expressed on yeast and sorted via fluorescence activated cell sorting. Individual designs sequenced from various rounds of mutagenesis and sorting were sequenced during the evolution to inform further design and mutagenesis strategies. One evolved variant, CDL2.1, incorporated 10 mutations scattered around the protein. Another evolved variant CDL2.2 is the most advanced variant from the directed evolution efforts.
(§1) Binding activity yeast surface display and flow cytometry, according to methods previously described by Wittrup et al.

[4] = Yeast surface display and flow cytometry titration against vitamin D3; assay type: binding; settings: for specificity for 25-D3 over vitamin D3: preference for 25-D3 over non-hydroxylated vitamin D3
Description: as §1

Row | Molecule | Kd [1] | Kd [2] | binding signal for 25-D3 on yeast ([3]; yeast display and flow cytometry, biotinylated 25-D3) | Kd ([4]; yeast surface display, vitamin D3, read-out: Approximate Kd) | Kd ([3]; read-out: Approximate Kd) | specificity for 25-D3 over vitamin D3 [4] | Kd ([3]; read-out: Kd)
1 | B1 | 2100 nM | ~2100 nM | exceptionally strong signal | – | – | – | –
2 | B2 | 319 nM | – | – | ~1900 nM | ~319 nM | – | –
3 | B3 | – | ~188 nM | – | – | – | – | –
4 | B4 | 1300 nM | – | – | – | – | did not show a significant preference | ~2000 nM
5 | B5 | 229 nM | – | – | – | ~229 nM | about two fold over CDL1 | –
